This is an account of results in patent US20090074762A1.

The target in this assay is T1, TweakR on cells (TweakR-expressing cells, TweakR transfectant cell line, A375 melanoma cells, tumor tissue) (human) (UniProt Q9NP84).
T1 sequence: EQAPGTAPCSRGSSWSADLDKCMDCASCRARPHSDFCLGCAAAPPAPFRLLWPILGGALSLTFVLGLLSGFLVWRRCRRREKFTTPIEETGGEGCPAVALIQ
Put plainly: cell-based or functional assay.

B1: anti-TweakR antibody ITEM4 (antibody, from another filing, V domains shown)
VH: QVQLQQSGPELVKPGASVKMSCKASGYTFTDFIIAWVKQRTGQGLEWIGEIYPGTGRTYYSEKFRGKATLTADKSSNTAYMQLSSLTSVDSAVYFCARRTIYYDYDGDYWGQGTTLTVSS
VL: DIVMTQAAFSNPVTLGTSASISCRSSKSLLHSNGITYLYWYLQKPGQSPQLLIYQMSNLASGVPDRFSSSGSGTDFTLRISRVEAEDVGVYYCAHNLELPWTFGGGTKLELK
B1: the agonist activity (IL-8 release assay) came to 12%.
